In paper PMC8219737, “Direct activation of the proton channel by albumin leads to human sperm capacitation and sustained release of inflammatory mediators by neutrophils” (Nature Communications, 2021):

Target: the molecule itself
Test: smTIRF single-molecule photobleaching (subunit counting); hHv1-G199L-TFP particles at the surface of live HEK293T cells; bleaching steps of TFP counted

B1: hHv1-G199L-TFP (natural protein, human, UniProt Q96D96-1 1-273, looked up)
chain: MATWDEKAVTRRAKVAPAERMSKFLRHFTVVGDDYHAWNINYKKWENEEEEEEEEQPPPTPVSGEEGRAAAPDVAPAPGPAPRAPLDFRGMLRKLFSSHRFQVIIICLVVLDALLVLAELILDLKIIQPDKNNYAAMVFHYMSITILVFFMMEIIFKLFVFRLEFFHHKFEILDAVVVVVSFILDIVLLFQEHQFEALLLLILLRLWRVARIINGIIISVKTRSERQLLRLKQMNVQLAAKIQHLEFSCSEKEQEIERLNKLLRQHGLLGEVN
notes: also used for the patch-clamp (functional) rows of hHv1-G199L; source: HEK293T, transfected, on live cells; not shown: teal fluorescent protein (TFP, via a 13-residue linker), C-terminal, kept
- stoichiometry N: 2 subunits per particle
